Test results: patent US20230357420A1 (VILLARIS THERAPEUTICS, published 2023)

Target: T1, Rhesus CD122 (rhesus monkey, UniProt Q38J85 27-551 (cynomolgus entry))
T1 construct: also called rhCD122 on cells
T1 sequence: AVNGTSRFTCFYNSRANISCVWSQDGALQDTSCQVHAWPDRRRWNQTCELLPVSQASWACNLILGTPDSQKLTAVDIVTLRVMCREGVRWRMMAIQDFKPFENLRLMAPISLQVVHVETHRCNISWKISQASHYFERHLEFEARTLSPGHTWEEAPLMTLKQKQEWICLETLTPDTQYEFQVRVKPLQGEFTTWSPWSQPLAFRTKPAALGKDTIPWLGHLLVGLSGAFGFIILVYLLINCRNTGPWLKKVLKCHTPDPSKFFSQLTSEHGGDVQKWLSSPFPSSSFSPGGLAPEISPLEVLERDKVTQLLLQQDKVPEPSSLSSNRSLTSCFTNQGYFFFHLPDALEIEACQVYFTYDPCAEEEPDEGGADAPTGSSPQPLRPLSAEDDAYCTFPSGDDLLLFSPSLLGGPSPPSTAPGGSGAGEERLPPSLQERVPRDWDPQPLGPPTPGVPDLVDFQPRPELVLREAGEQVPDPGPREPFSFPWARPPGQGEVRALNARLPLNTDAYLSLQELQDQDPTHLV
Experiment: flow cytometry (FACS) on rhIL15Rβ-transfected CHO-K1 cells, anti-human IgG-FITC, GeoMFI
Description: Purified IgGs were tested in FACs for binding to human and rhesus CD122 expressed on CHO-K1 stable cell lines and CHO-K1 wild-type cells. The IgG samples were titrated in three-fold serial dilutions starting at 500 nM to […]. Binding of IgGs was detected with a mouse anti-human IgG conjugated to FITC. Results were analyzed by examining the Mean Fluorescence Intensity (MFI) of 10000 cells per sample in the BL-1 channel detector of a flow cytometer (AttuneTM NxT Acoustic Focusing Cytometer, Invitrogen/ ThermoFisher Scientific).

B1: IgG1-MIKβ1 (humanized) (antibody, V domains shown)
VH: EVQLLESGGGLVQPGGSLRLSCAASGFSVTSYGVHWIRQAPGKGLEWLGVIWSGGSTDYNAAFISRLTISKDNSKNTVYFQMNSLQAEDTAIYYCARAGDYNYDGFAYWGQGTLVTVSS
VL: DIVLTQSPSSLSASVGDRVTITCSGSSSVSFMYWYQQRPGKAPRLLIYDTSNLASGVPSRFSGSGSGTSYTFTISSLQPEDIATYYCQQWSTYPLTFGQGTKVEVK
notes: also called VillMab-1; VillMAB-1
EC50 (read off the curve): ~600 pM
